Laboratory results from patent publication US20250230224A1 (University of California, published 2025).

T1: BoNT/F1 (UniProt A7GBG3 1-1278)
T1 sequence: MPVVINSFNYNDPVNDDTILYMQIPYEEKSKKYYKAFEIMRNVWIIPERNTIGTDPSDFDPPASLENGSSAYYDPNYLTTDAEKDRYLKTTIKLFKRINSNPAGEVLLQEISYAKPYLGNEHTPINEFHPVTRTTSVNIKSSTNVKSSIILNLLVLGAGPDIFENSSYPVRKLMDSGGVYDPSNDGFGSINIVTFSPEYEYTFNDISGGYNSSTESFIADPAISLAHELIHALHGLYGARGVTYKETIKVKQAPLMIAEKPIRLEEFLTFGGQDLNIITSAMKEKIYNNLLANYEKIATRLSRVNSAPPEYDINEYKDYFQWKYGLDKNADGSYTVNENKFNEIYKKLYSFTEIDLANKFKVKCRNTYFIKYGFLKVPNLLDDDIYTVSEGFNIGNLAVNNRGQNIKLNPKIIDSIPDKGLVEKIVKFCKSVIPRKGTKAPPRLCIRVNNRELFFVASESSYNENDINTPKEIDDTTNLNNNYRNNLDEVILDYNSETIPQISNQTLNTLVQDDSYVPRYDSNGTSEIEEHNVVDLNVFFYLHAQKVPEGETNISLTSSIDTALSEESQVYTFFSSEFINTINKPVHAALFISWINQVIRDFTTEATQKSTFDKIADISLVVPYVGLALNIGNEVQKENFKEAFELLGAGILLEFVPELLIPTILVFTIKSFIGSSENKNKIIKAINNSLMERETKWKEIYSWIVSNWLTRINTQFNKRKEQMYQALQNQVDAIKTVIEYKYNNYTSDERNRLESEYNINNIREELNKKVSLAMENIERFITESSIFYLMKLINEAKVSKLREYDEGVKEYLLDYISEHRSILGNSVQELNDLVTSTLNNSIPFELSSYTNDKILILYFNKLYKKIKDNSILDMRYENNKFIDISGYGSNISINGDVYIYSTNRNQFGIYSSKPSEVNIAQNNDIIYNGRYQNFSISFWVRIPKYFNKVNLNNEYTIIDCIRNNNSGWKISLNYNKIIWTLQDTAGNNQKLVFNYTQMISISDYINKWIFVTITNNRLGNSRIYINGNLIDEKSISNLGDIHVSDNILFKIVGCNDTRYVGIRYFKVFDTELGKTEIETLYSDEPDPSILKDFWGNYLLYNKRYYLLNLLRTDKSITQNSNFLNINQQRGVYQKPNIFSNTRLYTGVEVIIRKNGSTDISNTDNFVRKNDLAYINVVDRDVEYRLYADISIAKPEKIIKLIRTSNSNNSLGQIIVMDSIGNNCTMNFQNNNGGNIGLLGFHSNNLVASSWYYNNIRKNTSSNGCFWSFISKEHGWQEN

T2: Botulinum neurotoxin serotype C (BoNT/C) (Clostridium botulinum, UniProt P18640 2-1291)
T2 sequence: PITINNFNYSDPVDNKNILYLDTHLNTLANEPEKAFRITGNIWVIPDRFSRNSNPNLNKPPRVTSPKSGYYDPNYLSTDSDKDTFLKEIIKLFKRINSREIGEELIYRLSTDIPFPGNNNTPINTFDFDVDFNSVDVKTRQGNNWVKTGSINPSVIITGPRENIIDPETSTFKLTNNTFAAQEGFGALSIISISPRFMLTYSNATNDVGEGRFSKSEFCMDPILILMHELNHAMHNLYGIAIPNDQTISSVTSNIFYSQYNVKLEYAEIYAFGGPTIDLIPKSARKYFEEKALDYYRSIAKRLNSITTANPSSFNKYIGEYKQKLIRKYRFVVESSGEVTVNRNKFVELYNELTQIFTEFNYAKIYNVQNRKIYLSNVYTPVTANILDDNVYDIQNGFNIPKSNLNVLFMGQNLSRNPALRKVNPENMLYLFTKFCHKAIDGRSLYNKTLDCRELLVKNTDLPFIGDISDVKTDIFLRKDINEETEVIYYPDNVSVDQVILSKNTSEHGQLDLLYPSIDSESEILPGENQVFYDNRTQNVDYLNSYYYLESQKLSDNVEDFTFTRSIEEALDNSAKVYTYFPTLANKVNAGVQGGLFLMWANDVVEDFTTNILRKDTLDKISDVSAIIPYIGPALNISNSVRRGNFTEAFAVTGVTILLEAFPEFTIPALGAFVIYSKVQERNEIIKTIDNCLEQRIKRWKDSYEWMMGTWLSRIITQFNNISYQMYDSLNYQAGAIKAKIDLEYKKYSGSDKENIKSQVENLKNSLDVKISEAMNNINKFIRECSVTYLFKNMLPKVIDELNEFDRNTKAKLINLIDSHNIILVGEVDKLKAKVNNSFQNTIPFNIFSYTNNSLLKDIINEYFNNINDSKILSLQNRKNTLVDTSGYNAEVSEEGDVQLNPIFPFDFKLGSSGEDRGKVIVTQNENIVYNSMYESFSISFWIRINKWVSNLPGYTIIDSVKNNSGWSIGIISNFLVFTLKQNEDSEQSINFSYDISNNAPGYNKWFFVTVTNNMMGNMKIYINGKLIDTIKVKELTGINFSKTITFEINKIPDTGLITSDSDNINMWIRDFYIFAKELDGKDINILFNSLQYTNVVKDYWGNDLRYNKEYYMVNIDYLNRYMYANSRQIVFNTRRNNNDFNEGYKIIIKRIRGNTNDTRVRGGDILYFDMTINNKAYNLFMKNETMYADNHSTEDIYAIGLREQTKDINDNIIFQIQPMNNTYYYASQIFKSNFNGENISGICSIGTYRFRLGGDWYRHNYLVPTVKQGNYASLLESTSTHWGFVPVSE

T3: Botulinum neurotoxin serotype D (BoNT/D) (Clostridium botulinum, UniProt P19321 2-1276)
T3 sequence: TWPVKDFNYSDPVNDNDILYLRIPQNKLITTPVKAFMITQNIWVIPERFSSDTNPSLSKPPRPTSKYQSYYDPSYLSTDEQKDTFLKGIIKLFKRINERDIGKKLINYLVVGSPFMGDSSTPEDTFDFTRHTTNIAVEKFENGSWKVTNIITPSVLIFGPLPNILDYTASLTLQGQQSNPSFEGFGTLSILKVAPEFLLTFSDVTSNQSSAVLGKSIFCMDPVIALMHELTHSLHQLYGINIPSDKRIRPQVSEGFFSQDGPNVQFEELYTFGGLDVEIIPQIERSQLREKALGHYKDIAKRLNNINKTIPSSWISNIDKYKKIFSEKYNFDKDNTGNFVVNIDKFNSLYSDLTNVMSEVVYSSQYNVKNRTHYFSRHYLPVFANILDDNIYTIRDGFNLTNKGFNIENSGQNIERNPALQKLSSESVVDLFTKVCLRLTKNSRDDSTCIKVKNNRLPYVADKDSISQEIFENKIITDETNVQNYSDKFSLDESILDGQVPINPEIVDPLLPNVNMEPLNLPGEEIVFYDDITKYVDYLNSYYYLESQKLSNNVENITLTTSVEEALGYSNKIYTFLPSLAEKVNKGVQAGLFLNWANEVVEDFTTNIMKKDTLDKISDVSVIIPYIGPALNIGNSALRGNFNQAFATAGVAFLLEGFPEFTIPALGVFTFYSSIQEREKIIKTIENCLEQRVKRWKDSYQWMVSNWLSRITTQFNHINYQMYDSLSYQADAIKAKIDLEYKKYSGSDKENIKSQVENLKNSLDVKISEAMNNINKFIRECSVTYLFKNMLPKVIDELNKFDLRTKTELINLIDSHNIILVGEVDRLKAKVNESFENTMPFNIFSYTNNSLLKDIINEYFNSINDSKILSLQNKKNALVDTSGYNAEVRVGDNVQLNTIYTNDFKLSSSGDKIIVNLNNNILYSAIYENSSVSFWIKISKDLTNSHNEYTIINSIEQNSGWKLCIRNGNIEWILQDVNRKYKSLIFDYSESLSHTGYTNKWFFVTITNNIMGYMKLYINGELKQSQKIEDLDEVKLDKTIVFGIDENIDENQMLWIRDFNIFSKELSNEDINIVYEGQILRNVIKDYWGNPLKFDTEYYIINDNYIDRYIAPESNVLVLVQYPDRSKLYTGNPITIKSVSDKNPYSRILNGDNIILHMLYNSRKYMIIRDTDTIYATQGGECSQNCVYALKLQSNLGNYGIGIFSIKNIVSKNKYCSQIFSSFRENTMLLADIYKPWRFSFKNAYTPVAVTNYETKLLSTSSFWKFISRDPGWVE


Columns and labels:
[1] = target: T1, BoNT/F1; test: KinExA, IgG
[2] = target: T2, Botulinum neurotoxin serotype C (BoNT/C); test: KinExA flow fluorimetry, solution phase, IgG
[3] = target: Mosaic botulinum neurotoxin BoNT/DC (Clostridium botulinum); test: KinExA flow fluorimetry, solution phase, IgG
[4] = target: T3, Botulinum neurotoxin serotype D (BoNT/D); test: KinExA flow fluorimetry, solution phase, IgG

Binder | Kd [1] | Kd [2] | Kd [3] | Kd [4]
Hu6F11 IgG (antibody, V domains shown) VH: EVQLVESGGGLVKPGGSLRLSCAASGFTFSNYGMSWVRQAPGKGLEWVASISSGGSYIYYPDSVKGRFTISRDNAKNSLYLQMNSLRAEDTAVYYCARRKGYDSLYWYFDVWGQGTLVTVSS VL: DVVMTQSPSSLSAFVGDRVTITCRASQGIRSYLAWFQQKPGKAPKLLIYAASTLQSGVPSRFSGSGSGTEFTLTVSGLQPEDFATYYCQQYNSYPLTFGGGTRLEIKR | 0.71 pM |  |  | 
Hu6F13.4 IgG (antibody, V domains shown) VH: QVQLVQSGAEVKKPGASVKVSCKASGYSFTSYWMHWVRQAPGQGLEWIGFINPINGGIIYNEKFRFRATLTVDTSISTAYMELSRLRSDDTAVYYCARAGYYGSSRHFDVWGQGTLLTVSS VL: ETTLTQSPSSLSASVGDRVTITCRASQGIRNYLAWYQQKPGKAPKLLIYDASNLETGVPSRFSGSGSGTDFTFTISSLQPEDFATYYCLQTSSTPWTFGQGTKVDIKR | 173 pM |  |  | 
4C4 IgG (antibody, V domains shown) VH: QVQLVESGPGLVKPSQTLSLTCSVSGASINNSPYFWNWFRQFPGKGLEWIGYIYWSGSTNYNPSLKSRLAMSVDTSKNQFSLKLTSATAADTAVYYCARDQGGGTVVKENWFDPWGQGTLVTVSS VL: DIVMTQSPSSLSASVGDRLTMTCQASQDIGKHLNWYQQKAGKPPKLLIYGASNLKTGVPSRFSAGVSWTDFTFTISNVQPEDVATYYCQQSYSTPPTFGQGTKVEIK |  | 888 pM | 597 pM | 
4C4.4 IgG (antibody, V domains shown) VH: QVQLQESGPGLVKPSQTLSLTCTVSGASISNSPYFWNWFRQFPGKGLEWIGYIYWSGSTNYNPSLKSRLAMSVDTSKNQFSLKLTSATAADTAVYYCARDQGGGTVVKENWFDPWGQGTLVTVSS VL: DIVMTQSPSSLSASVGDRLTMTCQASQDIGKHLNWYQQKAGKPPKLLIYGASNLKTGVPSRFSAGVSWTDFTFTISNVQPEDVATYYCQQSYSTPPTFGQGTKVEIKR |  | 16 pM |  | 
4C4.2 IgG (antibody, V domains shown) VH: QVQLVESGPGLVKPSQTLSLTCSVSGASINNSPYFWNWFRQFPGKGLEWIGYIYWSGSTNYNPSLKSRLAMSVDTSKNQFSLKLTSATAADTAVYYCARDQGGGTVVKENWFDPWGQGTLVTVSS VL: DIQMTQSPSTLSASVGDRVTITCRASQSIGTYLNWYQQKPGRAPTLLVSRTSNLHTGVPSRFSGDGSGSHFSLTIDSLQPEDFATYYCQQSHTSPVTFGQGTKVEIK |  | 35 pM | 126 pM | 254 pM
4C4.1 IgG (antibody, V domains shown) VH: QVQLVESGPGLVKPSQTLSLTCSVSGASINNSPYFWNWFRQFPGKGLEWIGYIYWSGSTNYNPSLKSRLAMSVDTSKNQFSLKLTSATAADTAVYYCARDQGGGTVVKENWFDPWGQGTLVTVSS VL: ETTLTQSPSSLSASVGDRVSITCRASQSISNYLNWYQQKPGKAPKLLIYAASSLQSGVPSRFSGSGSGTDFTLTISSLQPEDFATYYCQQSYSDPPTFGQGTKVEIK |  | 570 pM | 58 pM | 898 pM
6F5.4 IgG (antibody, V domains shown) VH: EVQLVPSGGNLVQPGGSLRLSCAATGPIDYHWMTWVRQAPGQGLEWVANINLDGTEKFYVDSVKGRFTVSRDNRKSSVFLQMNNLRVDDTAVYYCARLQWGERDGWLSPWGQGTLVTVSS VL: DIVMTQSPPSLSASVGDRVRLTCRASQSIGRSLNWYQQKPGKAPKLLIYDASALHSGVPSRFSGSGSGTDFTLTISGLQPEDFATYYCQQTNDLPVTFGGGTKLEIKR | 14.8 pM |  |  | 
8DC4.1 IgG (antibody, V domains shown) VH: QVQLQESGPGLVKPSQTLSLTCTVSGGSISSDNYFWTWIRQSPGKGLEWLGHISYSGRSYTNLSLKRRLTISVDTSKNQFSLNLNSVTAADTAVYYCARERLPPGRGYDMDVWGQGTTVTVSS VL: not shown |  | 1400 pM | 1400 pM | 1400 pM
8DC4.4 IgG (antibody, V domains shown) VH: QVQLQESGPGLVKPSQTLSLTCTVSGGSISSDNYFWTWIRQSPGKGLEWLGHISYSGRSYTNLSLKRRLTISVDTSKNQFSLNLNSVTAADTAVYYCARERLPPGRGYDMDVWGQGTTVTVSS VL: DIVMTQSPSSVSASVGDRVTITCRASRDISIYLNWYQQKPGKAPKLLIYAASNLETGVPSRFSGSGSGTDFTLTISSLQPEDVATYYCQQSYNTPLTFGGGTKLEIKR |  | 136 pM |  | 157 pM
